T1: NU2M (Vigna radiata, UniProt E9KZK9 1-488, S19F | S103F | S104F | P119L | P121S | R123C | H132Y | P143L | S166LL | S221F | …)
T1 construct: NU2M, mitochondrially encoded core PP-module subunit of Vigna radiata complex I; 488 residues; residues 1-487 modelled; 14 TMH; the substitutions are RNA editing sites against the entry, made in the model where the density fitted the edited residue; RNA edits are natural; 'S166LL' is printed so and was read as S166L; also called Nad2 (A. thaliana name)
T1 sequence (looked up): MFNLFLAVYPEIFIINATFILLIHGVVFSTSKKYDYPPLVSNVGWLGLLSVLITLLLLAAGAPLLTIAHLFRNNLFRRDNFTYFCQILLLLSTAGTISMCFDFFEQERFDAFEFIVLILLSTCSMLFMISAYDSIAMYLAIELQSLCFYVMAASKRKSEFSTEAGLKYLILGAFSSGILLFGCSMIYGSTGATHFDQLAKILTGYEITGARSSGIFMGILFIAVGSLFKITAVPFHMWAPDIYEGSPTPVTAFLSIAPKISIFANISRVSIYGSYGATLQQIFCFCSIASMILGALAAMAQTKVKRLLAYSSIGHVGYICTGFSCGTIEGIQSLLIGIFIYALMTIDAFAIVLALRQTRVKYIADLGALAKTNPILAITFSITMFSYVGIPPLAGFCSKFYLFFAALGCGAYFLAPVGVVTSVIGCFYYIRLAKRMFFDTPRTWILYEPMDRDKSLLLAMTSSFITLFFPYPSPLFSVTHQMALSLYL

B1: CA1 (natural protein, Vigna radiata, UniProt A0A1S3VT00 1-270, looked up)
chain: MGTLGRAFYAVGFWIRETGQAIDRLGSRLQGNYLFQEQLSRHRPLMNLFDKYPSVHKDAFVAPSASLLGDVHVGPASSIWYGCVLRGDVNGIVIGSGTNIQDNSLVHVAKSNLTGKVLPTIIGDNVTVGHSAVLQGCTVEDEAFIGMGATLLDGVYVEKHAMVAAGALVRQNTRIPYGEVWGGNPAKFLRKLTEDEMAFFSQSALNYSNLAQAHAAENAKELEETEFVKVLHKKFAPRGEEYDSILDGGQETPAKLNLQDNVLLDKAPKA
notes: CA1, gamma-carbonic-anhydrase domain subunit of Vigna radiata mitochondrial complex I; 270 residues; residues 3-222 modelled, 223-233 as poly-Ala; also called carbonic-anhydrase-1 subunit; Gamma-CA 1 (A. thaliana name)
B2: NDUX1 (natural protein, Vigna radiata, UniProt A0A1S3VI15 1-101, looked up)
chain: MNTDITASTKPEYPVVDRNPPFTKVVGNFSTLDYLRFVTITGVSVTVGYLSGIKPGIRGPSMVTGGLIGVMGGFMYAYQNSAGRLMGFFPNDDEVARHNKK
notes: NDUX1, PP-module accessory subunit of Vigna radiata mitochondrial complex I, named here after Y. lipolytica NUXM; 101 residues; residues 1-100 modelled; 2 TMH; also called homologue of Y. lipolytica NUXM; 20.9 kDa (A. thaliana name)
B3: NDUC2 (natural protein, Vigna radiata, UniProt A0A1S3UPL8 1-81, looked up)
chain: MVLSATTIGALLGLGTQMYSNALRKLPYMRHPWEHVVGMGLGAVFVNQLLKWEAQVEQDLDKMLEKAKAANERRYIDGDDD
notes: NDUC2, membrane arm accessory subunit of Vigna radiata mitochondrial complex I; 81 residues; residues 5-68 modelled; 2 TMH; also called B14.5b (A. thaliana name)

Tests used:
Test in all cases: cryo-EM structure; CI* (~800 kDa assembly intermediate) from V. radiata mitochondrial membranes, digitonin-extracted, amphipol A8-35-stabilised, sucrose gradient; 6 mg/ml in 20 mM HEPES, 150 mM NaCl, 1 mM EDTA, 0.1% digitonin, pH 7.8; nominal resolution 3.9 Å; interfaces of the γCA domain listed from the model with PDBePISA
Conditions in all cases: both partners purified
NU2M [1] = target: T1, NU2M
CA1 = target: B1
NU2M [2] = target: T1, NU2M; remark: listed apart in the source

Row | binding result (CA1) | Binder | binding result (NU2M [1]) | binding result (NU2M [2])
1 | – | B1 | binds | –
2 | binds | B2 | – | binds
3 | binds | B3 | – | binds

From publication PMC7447434, “Atomic structure of a mitochondrial complex I intermediate from vascular plants” (eLife, 2020)
